One experiment deals with CCL11_HUMAN (Homo sapiens, UniProt P51671). Description: Biolayer interferometry (BLI) binding. In outline: (§1)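 Kd (M) came from curve fits to association, equilibrium and dissociation phases. Purified His-tagged tick evasin was immobilised on Ni-NTA biosensors; chemokines binding in a 300 nM cross-screen were then tested at a range of concentrations.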
A further experiment has as its target CCL13_HUMAN (Homo sapiens, UniProt Q99616). Nature of the experiment: Biolayer interferometry (BLI) binding. In outline:
as §1
Background: BLI is a label-free optical method that tracks binding on a fibre tip over time.

Another experiment addresses T1, CCL14_HUMAN (Homo sapiens, UniProt Q16627).
T1 sequence (Q16627 20-93): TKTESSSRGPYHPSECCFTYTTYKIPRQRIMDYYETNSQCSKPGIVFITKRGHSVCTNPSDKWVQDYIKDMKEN
Nature of the experiment: Biolayer interferometry (BLI) binding. In outline: as §1

The target of the next experiment is T2, CCL17_HUMAN (Homo sapiens, UniProt Q92583).
T2 sequence (Q92583 24-94): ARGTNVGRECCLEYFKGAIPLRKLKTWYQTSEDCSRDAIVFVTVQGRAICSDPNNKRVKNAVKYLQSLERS
Description: Biolayer interferometry (BLI) binding. In outline: as §1

A further experiment deals with T3, CCL18_HUMAN (Homo sapiens, UniProt P55774).
T3 sequence (P55774 21-89): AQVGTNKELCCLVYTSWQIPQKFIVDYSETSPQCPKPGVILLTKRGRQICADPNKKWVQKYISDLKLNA
Description: Biolayer interferometry (BLI) binding. A digest of the protocol: as §1

In the next experiment the target is T4, CCL1_HUMAN (Homo sapiens, UniProt P22362).
T4 sequence (P22362 24-96): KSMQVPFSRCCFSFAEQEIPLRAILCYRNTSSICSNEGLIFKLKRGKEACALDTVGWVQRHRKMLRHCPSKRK
Nature of the experiment: Biolayer interferometry (BLI) binding. In outline: as §1

A further experiment has as its target T5, CCL22_HUMAN (Homo sapiens, UniProt O00626).
T5 sequence (O00626 25-93): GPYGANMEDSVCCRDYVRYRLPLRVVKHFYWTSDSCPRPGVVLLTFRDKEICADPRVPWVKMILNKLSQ
Description: Biolayer interferometry (BLI) binding. In outline: as §1

The next experiment deals with CCL2_HUMAN (Homo sapiens, UniProt P13500). Nature of the experiment: Biolayer interferometry (BLI) binding. A digest of the protocol: as §1
Sequence of CCL2_HUMAN (P13500 24-99): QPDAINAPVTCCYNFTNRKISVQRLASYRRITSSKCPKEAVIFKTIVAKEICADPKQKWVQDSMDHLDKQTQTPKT
Another experiment addresses CCL3L1_HUMAN (Homo sapiens, UniProt P16619). Nature of the experiment: Biolayer interferometry (BLI) binding. A digest of the protocol:
as §1

In the next experiment the target is T6, CCL3_HUMAN (Homo sapiens, UniProt P10147).
T6 sequence (P10147 24-92): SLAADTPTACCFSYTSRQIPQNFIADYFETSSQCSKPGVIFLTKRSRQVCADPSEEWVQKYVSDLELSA
Description: Biolayer interferometry (BLI) binding. A digest of the protocol: as §1

In a further experiment the target is T7, CCL4L1_HUMAN (Homo sapiens, UniProt Q8NHW4).
T7 sequence (Q8NHW4 24-92): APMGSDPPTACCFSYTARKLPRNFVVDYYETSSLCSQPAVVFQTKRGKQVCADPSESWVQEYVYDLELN
Nature of the experiment: Biolayer interferometry (BLI) binding. In outline:
as §1

The next experiment addresses T8, CCL4_HUMAN (Homo sapiens, UniProt P13236).
T8 sequence (P13236 24-92): T7 sequence (Q8NHW4 24-92) with G47S
Description: Biolayer interferometry (BLI) binding. A digest of the protocol: as §1

A further experiment addresses T9, CCL5_HUMAN (Homo sapiens, UniProt P13501).
T9 sequence (P13501 24-91): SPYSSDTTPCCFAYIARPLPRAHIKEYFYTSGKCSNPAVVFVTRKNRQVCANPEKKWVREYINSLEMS
Description: Biolayer interferometry (BLI) binding. In outline:
as §1

The target of a further experiment is CCL7_HUMAN (Homo sapiens, UniProt P80098). Nature of the experiment: Biolayer interferometry (BLI) binding. In outline: as §1
Sequence of CCL7_HUMAN (P80098 24-99): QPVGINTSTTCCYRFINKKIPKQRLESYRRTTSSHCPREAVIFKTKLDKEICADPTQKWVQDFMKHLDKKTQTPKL
In the next experiment the target is T10, CCL8_HUMAN (Homo sapiens, UniProt P80075).
T10 sequence (P80075 24-99): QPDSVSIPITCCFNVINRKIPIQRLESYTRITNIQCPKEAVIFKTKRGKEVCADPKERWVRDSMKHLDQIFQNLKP
Description: Biolayer interferometry (BLI) binding. To be noted: read-out: Kd, CCL8_HUMAN. A digest of the protocol:
as §1

Another experiment relates to chemokines. As to conditions: list of chemokines bound, from the literature [18,20-22]; cited from earlier work.
Experiment [1] deals with human CCL5 together with CXCL8, CXCL1, CCL3 or CCL2. Nature of the experiment: Biolayer interferometry polyvalent binding (association with CCL5, then CCL5 plus second chemokine). As to conditions: BLI, wavelength shift in association 2. The source says:
FIG. 10. Polyvalent binding of CC and CXC chemokines to two-warhead evasins. […] This was followed by association with CCL5+CXCL8 (light grey trace), or with CCL5+CXCL1 (dark grey trace) or CCL5+CCL3 (black trace) (association 2), and then dissociated in buffer (dissociation).
FIG. 11. Polyvalent binding of CC and CXC chemokines to two-warhead evasins. […] This was followed by association with CCL5+CXCL8 (light grey trace), or with CCL5+CXCL1 (dark grey trace) or CCL5+CCL2 (black trace) (association 2), and then dissociated in buffer (dissociation).
The ability of 2-warhead evasins to engage in polyvalent binding of CC and CXC chemokines was further determined.

The target of a further experiment is T11, CXCL11_HUMAN (Homo sapiens, UniProt O14625).
T11 sequence (O14625 22-94): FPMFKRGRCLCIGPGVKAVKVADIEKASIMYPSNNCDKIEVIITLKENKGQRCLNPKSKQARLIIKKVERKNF
Nature of the experiment: Yeast surface display (YSD) FACS binding. As to conditions: FACS re-test; mean percent shift where several clones. In outline:
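Yeast clones displaying tick peptides were re-tested by FACS with labelled chemokine detected by streptavidin-Alexa conjugate. Binding was scored as % of peptide-expressing cells above a background set with streptavidin-Alexa alone, averaged over independent clones. In the screen tables, >3-fold over background mean fluorescence intensity was scored as binding.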
On the technique in general: In flow cytometry, cells or beads pass a laser one at a time.

For the next experiment, the target named is T12, CCL16_HUMAN (Homo sapiens, UniProt O15467).
T12 sequence (O15467 24-120): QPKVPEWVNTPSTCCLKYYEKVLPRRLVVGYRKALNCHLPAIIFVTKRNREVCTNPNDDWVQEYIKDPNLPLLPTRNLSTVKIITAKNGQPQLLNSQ
Description: Biolayer interferometry (BLI) binding. In outline:
as §1

The target in a further experiment is T13, CCL24_HUMAN (Homo sapiens, UniProt O00175).
T13 sequence (O00175 27-119): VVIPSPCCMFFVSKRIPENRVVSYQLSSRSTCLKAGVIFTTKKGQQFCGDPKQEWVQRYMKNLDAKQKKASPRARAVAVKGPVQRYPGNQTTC
Description: Biolayer interferometry (BLI) binding. A digest of the protocol:
as §1

Numbering of substitutions follows the chain as printed. Entries after “also recorded” stand apart in the source; their conditions may differ.

Sequence of CCL13_HUMAN (Q99616 17-98): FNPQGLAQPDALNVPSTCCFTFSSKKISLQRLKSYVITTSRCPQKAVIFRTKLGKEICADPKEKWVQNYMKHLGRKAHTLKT
Sequence of CCL3L1_HUMAN (P16619 24-93): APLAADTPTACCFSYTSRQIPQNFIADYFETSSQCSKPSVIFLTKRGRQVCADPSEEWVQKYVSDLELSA
Sequence of CCL11_HUMAN (P51671 24-97): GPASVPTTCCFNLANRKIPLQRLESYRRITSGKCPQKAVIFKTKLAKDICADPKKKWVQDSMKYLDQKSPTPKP

B1: P974_AMBCA: tick CKBP, Amblyomma cajennense; ACA-01 stated identical (protein)
chain: ENTQQEEQDYDYGTDTCPFPVLANKTNKAKFVGCHQKCNGGDQKLTDGTACYVVERKVWDRMTPMLWYECPLGECKNGVCEDLRKKEDCRKGNGEEK
modifications: Amblyomma cajennense
notes: tick CKBP, Amblyomma cajennense; ACA-01 stated identical
Broadly, the Kd is a measure of binding affinity in units of concentration. With B1, the Kd was found to be 17 nM with CCL11_HUMAN; 22.9 nM with CCL13_HUMAN; 49.1 nM with CCL14_HUMAN; 70.6 nM with CCL17_HUMAN; 17 nM in the experiment with CCL18_HUMAN; 70.5 nM with CCL1_HUMAN. The Kd was determined as 16.5 nM with CCL22_HUMAN; 93 nM in the experiment with CCL2_HUMAN; 13.1 nM in the experiment with CCL3L1_HUMAN; 7.97 nM with CCL3_HUMAN; 23.2 nM in the experiment with CCL4L1_HUMAN; 30.2 nM in the experiment with CCL4_HUMAN. In addition, the Kd amounted to 160 nM in the experiment with CCL5_HUMAN, 41.2 nM with CCL7_HUMAN and 2.58 nM with CCL8_HUMAN. Also, the “Previously described chemokine binding” value in the experiment on chemokines is “CCL11, CCL24,; also recorded: CCL26, CCL2,; also recorded: CCL8, CCL7”.

B2: P546_AMBCA: tick CKBP, Amblyomma cajennense (protein)
chain: B1 chain with Q8E, E69S, D88E
modifications: Amblyomma cajennense
In the case of B2, the Kd with CCL11_HUMAN is 8.7 nM; with CCL13_HUMAN, 13 nM; in the experiment with CCL14_HUMAN, 28 nM; with CCL17_HUMAN, 70 nM; with CCL18_HUMAN, 16 nM; with CCL1_HUMAN, 160 nM. Further, the Kd came to 27 nM with CCL22_HUMAN; 83 nM with CCL2_HUMAN; 15 nM in the experiment with CCL3L1_HUMAN; 15 nM with CCL3_HUMAN; 8.9 nM with CCL4L1_HUMAN; 27 nM with CCL4_HUMAN. For the same molecule, the dissociation constant Kd was found to be 90 nM in the experiment with CCL7_HUMAN and 1.3 nM with CCL8_HUMAN.

B3: SEQ ID NO: 81: two-warhead evasin: P1156_IXORI linked via GGGGS linker to P1243_AMBAM (protein)
chain: ADDDNELFTVQYCGMNCTKDEGGTWTGCTGKKEGCKCYHESGKNYGLCLSTEYTDFSQYGNPSDSEIEAAKPKRSDTLSHGGGGSRNHTEDNSTEYYDYEEARCACPARHLNNTNGTVLKLLGCHYFCNGTLCTAPDGYPCYNLTAQQVRTLTTYPNTSCAVGVCMKGTCVKNGTMEQCFKTP
modifications: hybrid polypeptide
notes: two-warhead evasin: P1156_IXORI linked via GGGGS linker to P1243_AMBAM
Take B3: the “Polyvalent (simultaneous) binding of CC and CXC chemokines” value (“Polyvalent (simultaneous) binding” for short) in experiment [1] is “can associate simultaneously with CCL5 and either CXCL8 or CXCL1”.

B4: P942_IXORI: novel CXC-binding tick CKBP, Ixodes ricinus (protein, listed as Ixodes ricinus)
chain: NQLSGPQSSANSNEAVFCDTNCTQGTDEAWSGCRGDCFCVYVGNSTEGRCMMLSGDFDYSTPGAED
In the case of B4, the “Chemokines bound in yeast surface display and % cells over threshold fluorescence: CXCL11_HUMAN” value in the experiment with CXCL11_HUMAN is given as “CXCL11_HUMAN 37%”.

B5: SEQ ID NO: 73: two-warhead evasin: P991_AMBCA linked via GGGGS linker to P1156_IXORI (protein)
chain: ENGEGTTQPDYDNSTDYYNYEDFKCTCPAPHLNNTNGTVMKPIGCYYTCNVTRCTAPDTYPCYNLTEHQAKNLTTSPTTLCAVGNCDHGICVPNGTKELCFKAPNLEEGGGGSADDDNELFTVQYCGMNCTKDEGGTWTGCTGKKEGCKCYHESGKNYGLCLSTEYTDFSQYGNPSDSEIEAAKPKRSDTLSH
modifications: hybrid polypeptide
notes: two-warhead evasin: P991_AMBCA linked via GGGGS linker to P1156_IXORI
Turning to B5, the “Polyvalent (simultaneous) binding” value in [1] is “can associate simultaneously with CCL5 and either CXCL8 or CXCL1”.

B6: SEQ ID NO: 80: two-warhead evasin: P1156_IXORI linked via GGGGS linker to P991_AMBCA (protein)
chain: ADDDNELFTVQYCGMNCTKDEGGTWTGCTGKKEGCKCYHESGKNYGLCLSTEYTDFSQYGNPSDSEIEAAKPKRSDTLSHGGGGSENGEGTTQPDYDNSTDYYNYEDFKCTCPAPHLNNTNGTVMKPIGCYYTCNVTRCTAPDTYPCYNLTEHQAKNLTTSPTTLCAVGNCDHGICVPNGTKELCFKAPNLEE
modifications: hybrid polypeptide
notes: two-warhead evasin: P1156_IXORI linked via GGGGS linker to P991_AMBCA
For the molecule B6, in [1], the “Polyvalent (simultaneous) binding” value was “can associate simultaneously with CCL5 and either CXCL8 or CXCL1”.

B7: P985_AMBPA: tick CKBP, Amblyomma parvum (protein, listed as Amblyomma parvum)
chain: DEESEELGASTDVDYEELDANCTCPAPALTSTRNNKHYPLGCIYNCSSYNCTIPDGTPCYVLTLGEVKEHLQIGSTVPNCTCGLCRNGTCVSNGTVEECFAVEEIEET
In the case of B7, the equilibrium dissociation constant (Kd) in the experiment with CCL11_HUMAN was 8 nM; in the experiment with CCL13_HUMAN, 89 nM; in the experiment with CCL16_HUMAN it was 45 nM; in the experiment with CCL18_HUMAN it was 430 nM; with CCL1_HUMAN, 8.3 nM; with CCL24_HUMAN, 41 nM. Also, the Kd amounted to 17 nM with CCL2_HUMAN; 7.5 nM with CCL3L1_HUMAN; 8.9 nM in the experiment with CCL3_HUMAN; 21 nM with CCL4L1_HUMAN; 46 nM in the experiment with CCL4_HUMAN; 3.5 nM with CCL5_HUMAN. Moreover, the Kd with CCL7_HUMAN turned out to be 61 nM; with CCL8_HUMAN, 6.5 nM.

B8: P675_IXORI: novel CXC-binding tick CKBP, Ixodes ricinus (protein, listed as Ixodes ricinus)
chain: GSNQLSGPQSSANSNDAVFCDTNCTQGTDGAWSGCRGDCFCVHVGNSTEGRCIELIGDFDYSTPGAED
Turning to B8, the “Chemokines bound in yeast surface display and % cells over threshold fluorescence: CXCL11_HUMAN” value with CXCL11_HUMAN is on record as “CXCL11_HUMAN 55%”.
